{"source": "paper PMC7116363", "about": "(Biomaterials, 2020)", "origin": "cited, not measured here", "key": {"L cells": {"tested_on": "L cells", "details": "in mice"}, "[1]": {"experiment": "not given", "remark": "listed apart in the source"}}, "data": [{"molecule": "liraglutide", "values": [{"measurement": "circulating levels after oral co-administration with SNAC", "value": "failed to provide circulating levels"}]}, {"molecule": "CCC(=O)O", "note": "[propionate]", "values": [{"measurement": "effective concentration of propionate needed to exert an effect on L cells", "setting": "L cells", "value": 140, "unit": "mmol/L"}]}, {"molecule": "semaglutide", "values": [{"measurement": "half-life", "setting": "[1]", "value": 165, "unit": "h"}]}]}
